Consider 1 molecule from PMC12246119 (Nature Communications, 2025).

One test concerns the target Ran^Q69L(GTP) (human, UniProt P62826 1-216, Q69L). In words: cryo-EM structure; purified RanBP2^RBD4/SUMO1^Q94P-RanGAP1/Ubc9 incubated with excess Crm1 and Ran^Q69L(GTP), gel filtration in 20 mM HEPES pH 7.4, 110 mM potassium acetate, 2 mM magnesium acetate, 1 mM TCEP; lightly crosslinked with 250 µM BS3; 0.1% CHAPSO; 9.7 mg/mL. The following applies: both partners purified. Background: Size exclusion chromatography separates by hydrodynamic size, large species first.

A further test addresses T1, Crm1 (human, UniProt O14980 1-1071).
T1 construct: Crm1 (exportin), human, full length, wild type; also called exportin Crm1; source: E. coli BL21(DE3) SoluBL21 with Codon Plus (RIL) plasmid, purified (Ni-NTA, Ulp1 cleavage, Superdex 200, MonoQ); not shown: His6, N-terminal, cleaved; Smt3, N-terminal, cleaved
The test is described as above. The following applies: both partners purified.

T1 sequence (O14980 whole entry): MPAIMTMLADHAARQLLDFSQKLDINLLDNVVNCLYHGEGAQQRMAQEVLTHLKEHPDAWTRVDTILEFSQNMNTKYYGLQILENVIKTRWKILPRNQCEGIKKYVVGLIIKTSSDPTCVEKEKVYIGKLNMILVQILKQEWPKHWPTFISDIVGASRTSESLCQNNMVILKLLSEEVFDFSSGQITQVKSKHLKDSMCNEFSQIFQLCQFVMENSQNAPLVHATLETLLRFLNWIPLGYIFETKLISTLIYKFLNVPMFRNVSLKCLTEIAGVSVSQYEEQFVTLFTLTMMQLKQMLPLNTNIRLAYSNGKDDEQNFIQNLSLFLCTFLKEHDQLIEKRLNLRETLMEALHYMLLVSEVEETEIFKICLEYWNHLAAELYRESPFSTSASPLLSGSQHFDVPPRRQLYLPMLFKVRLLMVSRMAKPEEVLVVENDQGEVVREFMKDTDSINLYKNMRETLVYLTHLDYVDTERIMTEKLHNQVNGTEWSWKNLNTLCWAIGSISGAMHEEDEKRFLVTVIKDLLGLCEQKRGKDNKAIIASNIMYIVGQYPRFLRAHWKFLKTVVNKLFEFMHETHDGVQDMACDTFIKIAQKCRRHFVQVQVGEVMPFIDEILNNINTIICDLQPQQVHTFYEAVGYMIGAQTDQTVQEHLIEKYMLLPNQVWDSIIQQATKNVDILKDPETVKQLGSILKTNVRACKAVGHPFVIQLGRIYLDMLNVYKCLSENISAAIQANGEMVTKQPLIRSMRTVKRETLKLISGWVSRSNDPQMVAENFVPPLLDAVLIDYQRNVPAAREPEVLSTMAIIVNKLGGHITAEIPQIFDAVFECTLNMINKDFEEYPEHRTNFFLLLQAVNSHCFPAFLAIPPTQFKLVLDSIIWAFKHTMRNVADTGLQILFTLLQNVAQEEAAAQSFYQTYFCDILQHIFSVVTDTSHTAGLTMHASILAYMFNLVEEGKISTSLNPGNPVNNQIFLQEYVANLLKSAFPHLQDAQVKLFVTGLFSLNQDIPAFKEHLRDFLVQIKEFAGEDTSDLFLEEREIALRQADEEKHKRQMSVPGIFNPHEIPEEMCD

B1: RanBP2^2446-3060 (RanBP2^RBD4) (domain or fragment, human, UniProt P49792 2446-3060, looked up)
chain: DSLITPHVSRSSTPRESPCGKIAVAVLEETTRERTDVIQGDDVADATSEVEVSSTSETTPKAVVSPPKFVFGSESVKSIFSSEKSKPFAFGNSSATGSLFGFSFNAPLKSNNSETSSVAQSGSESKVEPKKCELSKNSDIEQSSDSKVKNLFASFPTEESSINYTFKTPEKAKEKKKPEDSPSDDDVLIVYELTPTAEQKALATKLKLPPTFFCYKNRPDYVSEEEEDDEDFETAVKKLNGKLYLDGSEKCRPLEENTADNEKECIIVWEKKPTVEEKAKADTLKLPPTFFCGVCSDTDEDNGNGEDFQSELQKVQEAQKSQTEEITSTTDSVYTGGTEVMVPSFCKSEEPDSITKSISSPSVSSETMDKPVDLSTRKEIDTDSTSQGESKIVSFGFGSSTGLSFADLASSNSGDFAFGSKDKNFQWANTGAAVFGTQSVGTQSAGKVGEDEDGSDEEVVHNEDIHFEPIVSLPEVEVKSGEEDEEILFKERAKLYRWDRDVSQWKERGVGDIKILWHTMKNYYRILMRRDQVFKVCANHVITKTMELKPLNVSNNALVWTASDYADGEAKVEQLAVRFKTKEVADCFKKTFEECQQNLMKLQKGHVSLAAELSK
notes: RanBP2 (Nup358), human, residues 2446-3060: FG1, IR1-M-IR2, FG2 and RBD4; also called RanBP2 FG1-IR1-M-IR2-FG2-RBD4 fragment; hRanBP2^RBD4; source: E. coli BL21(DE3) Codon Plus (RIL), purified (Ni-NTA, Superdex 200)
For B1, the binding result in the test with Ran^Q69L(GTP) and in the test with Crm1 was “binds” in each case.
